Data published in patent US11612667B2, “Enhanced in vivo targeting of radiolabelled peptides with the means of enzyme inhibitors” (Advanced Accelerator Applications USA, Inc., priority 2011, dated 2023).
Non-standard residues stand in square brackets, D forms with d. Residues, ends and D or L forms follow the SMILES beside them. *: point of attachment. DOTA = O=C(O)CN1CCN(CC(=O)O)CCN(CC(=O)*)CCN(CC(=O)O)CC1; Nle = CCCC[C@H](N)C(=O)O; X1 = NCCNCC(CNCCN)C(=O)*; AEEA = NCCOCCOCC(=O)O; βAla = NCCC(=O)O; For = O=C*

Key:
[1] = parameters: species or system Swiss albino mice; conditions: mouse, in vivo, 5 min
Description: Whole blood was collected 5 min postinjection (pi), blood cells were removed and major proteins were precipitated and then the supernatant was analyzed by RP-HPLC coupled to a gamma detector.
Alternatively, the dual NEP and ACE inhibitor racecadotril (race; 2.5 mg) was ip injected 45-60 min prior to radioligand injection and the same procedure was followed as described above.
To test the in vivo stability, ^111In-DOTA-MG11 was injected in the tail vein of Swiss albino mice and 5 min afterwards blood was collected, blood cells were removed and major proteins were precipitated and then the supernatant was analyzed by RP-HPLC coupled to a gamma detector. As shown in the radiochromatogram of FIG. 3A, the major part of ^111In-DOTA-MG11 was consumed during this period (<5% intact peptide still detected), in agreement with previous reports. Further, ^111In-DOTA-MG11 was co-injected together with PA or injected 1 h after ip injection of race (2.5 mg) in more mice and the same protocol was followed as above. Amazingly, the percentage of ^111In-DOTA-MG11 found intact in the blood of the PA-treated mice was raised from <5% to 75% and in the race-pretreated mice to 73%.
For ex vivo blood analysis, [^99mTc]Demotensin 6 was injected in the tail vein of Swiss albino mice and blood collected 5 min thereafter was analyzed as previously described. The effect of PA on stability was studied by co-injection of PA along with [^99mTc]Demotensin 6. Furthermore, a PA dose study was performed with the PA injected dose ranging from 300 μg down to 0.03 μg and results are summarized in FIG. 4A.
Additional groups of radiopeptides with relevance for nuclear medicine applications have been studied for their in vivo stability. Radiopeptides were injected in the tail vein of healthy mice, either alone, or with a NEP inhibitor (PA—300 μg), or with a NEP (PA—300 μg) and an ACE (Lis—300 μg) inhibitor mixture; alternatively, another NEP inhibitor prodrug (race—2.5 mg) was ip injected in the animals ˜45 min prior to radioligand injection. Blood was collected 5 min afterwards, and analyzed by RP-HPLC after suitable preparation, as previously described.

WiDr tumors (hNTS1+) = test: Biodistribution / tumor uptake in SCID mice bearing WiDr tumors (hNTS1+); conditions: 4 h pi
Description: FIG. 4H: Biodistribution of [^99mTc]Demotensin 6 in SCID mice bearing WiDr tumors (hNTS1^+) at 4 h pi. Bars represent average uptake as mean % injected dose per gram (% ID/g) of at least 4 animals with standard deviation (control at 4 h 2nd bars); three additional groups of animals received either excess NT(1-13) and PA (100 μg blocker and 300 μg PA—first bars), or PA (300 μg PA—3rd bars) or PA and Lis (300 μg PA+250 μg Lis—4th bars). Bl=blood, Li=liver, He=heart, Ki=kidneys, St=stomach, In=intestines, Sp=spleen, Mu=muscle, Lu=lungs, Pa=pancreas, Fe=femur and Tu=WiDr tumor.
FIG. 5H: Biodistribution of [^99mTc]Demotensin 1 in SCID mice bearing WiDr tumors (hNTS1+) at 4 h pi. Bars represent average uptake as mean % injected dose per gram (% ID/g) of at least 4 animals with standard deviation (control at 4 h 2nd bars); three additional groups of animals received either excess NT and PA (100 μg and 300 μg PA, respectively—first bars), or PA (300 μg PA—3rd bars) or PA and Lis (300 μg PA+300 μg Lis—4th bars). Bl=blood, Li=liver, He=heart, Ki=kidneys, St=stomach, In=intestines, Sp=spleen, Mu=muscle, Lu=lungs, Pa=pancreas, Fe=femur and Tu=WiDr tumor.
In FIG. 4B the effects of such regimens on SCID mice bearing the human colon adenocarcinoma WiDr tumor (a hNTS1R^+ tumor) on enhancing in vivo tumor targeting are presented.
In FIG. 5B the effects of above regimens on SCID mice bearing WiDr tumors (hNTS1R^+) on enhancing in vivo tumor targeting are shown.

[2] = tested on: human prostate adenocarcinoma PC-3 xenografts (GRPR+); parameters: species or system SCID mice; conditions: mouse, in vivo; for uptake in PC-3 tumor: SCID, 4 h
Description: FIG. 6C: Biodistribution of [^99mTc]SAR-NC1 in SCID mice bearing human prostate adenocarcinoma PC-3 xenografts (GRPR^+) at 4 h pi.
In FIG. 6B and FIG. 7B, the biodistribution of [^99mTc]SAR-NC1 and [^99mTc]SAR-NC6 in SCID mice bearing human prostate adenocarcinoma PC-3 xenografts (GRPR^+) at 4 h respectively, after injection of the radioligand alone or with co-injection of PA (300 μg) are shown.
It is interesting to note that with co-injection of the blocker and PA tumor values were minimal (0.69±0.03% ID/g) showing that PA provoked a GRPR-mediated increase in tumor uptake.
The effect of PA-induced stabilization of [^99mTc]Demobesin 1 on tumor uptake is illustrated in FIG. 10B, showing the biodistribution at 4 h pi after injection of [^99mTc]Demobesin 1 in SCID mice bearing human PC-3 xenografts (GRPR^+) (control), or with PA (300 μg).

[3] = mouse; cited from earlier work

## CCCC[C@H](NC=O)C(=O)N[C@@H](CC(C)C)C(=O)N[C@@H](Cc1ccccc1)C(=O)N[C@@H](CCCC)C(=O)N[C@@H](Cc1ccc(O)cc1)C(=O)N[C@@H](CCCCNC(=O)CN1CCN(CC(=O)O)CCN(CC(=O)O)CCN(CC(=O)O)CC1)C(=O)O [[111In] CTP-1, For-Nle-Leu-Phe-Nle-Tyr-Lys(DOTA)-OH, metal not drawn] (For-[Nle]LF[Nle]YK(DOTA)-OH)
[1]
  percentage of parent peptide remaining intact: 2%

## CC[C@H](C)[C@H](NC(=O)[C@H](Cc1ccc(O)cc1)NC(=O)[C@@H]1CCCN1C(=O)[C@H](CCCN=C(N)N)NC(=O)[C@H](CCCN=C(N)N)NC(=O)CNC(=O)C(CNCCN)CNCCN)C(=O)N[C@@H](CC(C)C)C(=O)O [[^99mTc]Demotensin 1, ^99mTc-N4-Gly-Arg-Arg-Pro-Tyr-Ile-Leu-OH, metal not drawn] (X1-GRRPYIL-OH)
WiDr tumors (hNTS1+); PA 300 μg
  uptake in WiDr tumor: 4.58±0.47 % ID/g
WiDr tumors (hNTS1+); PA 300 μg + Lis (250 μg for Demotensin 6, 300 μg for Demotensin 1)
  uptake in WiDr tumor: 7.71±1.19 % ID/g
WiDr tumors (hNTS1+); excess NT 100 μg blocker + 300 μg PA
  uptake in WiDr tumor, blockade: 0.23±0.09 % ID/g
WiDr tumors (hNTS1+); non-treated controls
  uptake in WiDr tumor: 1.20±0.21 % ID/g

## CCCC[C@H](NC(=O)[C@H](CO)NC(=O)[C@H](Cc1ccc(O)cc1)NC(=O)[C@H](CO)NC(=O)CN1CCN(CC(=O)O)CCN(CC(=O)O)CCN(CC(=O)O)CC1)C(=O)N[C@@H](CCC(=O)O)C(=O)N[C@@H](Cc1cnc[nH]1)C(=O)N[C@H](Cc1ccccc1)C(=O)N[C@@H](CCCN=C(N)N)C(=O)N[C@@H](Cc1c[nH]c2ccccc12)C(=O)NCC(=O)N[C@@H](CCCCN)C(=O)N1CCC[C@H]1C(=O)N[C@H](C(N)=O)C(C)C [[111In]MSH-2, (DOTA)Ser-Tyr-Ser-Nle-Glu-His-DPhe-Arg-Trp-Gly-Lys-Pro-Val-NH2, metal not drawn]
[1]
  percentage of parent peptide remaining intact: 77%

## CC(C)C[C@H](NC(=O)C[C@H](O)[C@H](CC(C)C)NC(=O)[C@H](Cc1c[nH]cn1)NC(=O)CNC(=O)[C@@H](NC(=O)[C@H](C)NC(=O)[C@H](Cc1c[nH]c2ccccc12)NC(=O)[C@H](CCC(N)=O)NC(=O)[C@@H](Cc1ccccc1)NC(=O)CCNC(=O)CCNC(=O)CN1CCN(CC(=O)O)CCN(CC(=O)O)CCN(CC(=O)O)CC1)C(C)C)C(N)=O [[^111In]JMV4168, [^111In]DOTA-βAla-βAla-DPhe-Gln-Trp-Ala-Val-Gly-His-Sta-Leu-NH2, metal not drawn]
[2]
  uptake in PC-3 tumor: 10.22±2.40 % ID/g
  pancreas uptake: remained very low

## CCCC[C@H](NC(=O)[C@H](CO)NC(=O)[C@H](Cc1ccc(O)cc1)NC(=O)[C@H](CO)NC(=O)CN1CCN(CC(=O)O)CCN(CC(=O)O)CCN(CC(=O)O)CC1)C(=O)N[C@@H](CCC(=O)O)C(=O)N[C@@H](Cc1c[nH]cn1)C(=O)N[C@@H](Cc1ccccc1)C(=O)N[C@@H](CCCNC(=N)N)C(=O)N[C@@H](Cc1c[nH]c2ccccc12)C(=O)NCC(=O)N[C@@H](CCCCN)C(=O)N1CCC[C@H]1C(=O)N[C@H](C(N)=O)C(C)C [[111In]MSH-1, metal not drawn]
[1]
  percentage of parent peptide remaining intact: 52%

## CC(C)C[C@H](NC(=O)CNC(=O)[C@H](Cc1ccccc1)NC(=O)[C@H](Cc1ccccc1)NC(=O)[C@H](CCC(N)=O)NC(=O)[C@H](CCC(N)=O)NC(=O)[C@@H]1CCCN1C(=O)[C@H](CCCCN)NC(=O)[C@@H]1CCCN1C(=O)[C@H](CCCNC(=N)N)NC(=O)CN1CCN(CC(=O)O)CCN(CC(=O)O)CCN(CC(=O)O)CC1)C(=O)N[C@@H](CCS(C)(=O)=O)C(N)=O [[111In]SP-2, metal not drawn]
[1]
  percentage of parent peptide remaining intact: 24%

## CC(C)C[C@H](NC(=O)CN(C)C(=O)[C@H](Cc1ccccc1)NC(=O)[C@H](Cc1ccccc1)NC(=O)[C@H](CCC(N)=O)NC(=O)[C@H](CCC(N)=O)NC(=O)[C@@H]1CCCN1C(=O)[C@H](CCCCN)NC(=O)[C@@H]1CCCN1C(=O)[C@H](CCCNC(=N)N)NC(=O)CN1CCN(CC(=O)O)CCN(CC(=O)O)CCN(CC(=O)O)CC1)C(=O)N[C@@H](CCS(C)(=O)=O)C(N)=O [[111In]SP-3, metal not drawn]
[1]
  percentage of parent peptide remaining intact: 51%

## CCCC[C@H](NC(=O)[C@H](Cc1ccccc1)NC(=O)[C@H](Cc1c[nH]cn1)NC(=O)CCNC(=O)[C@@H](NC(=O)[C@H](C)NC(=O)[C@H](Cc1c[nH]c2ccccc12)NC(=O)[C@H](CCC(N)=O)NC(=O)[C@@H](Cc1ccc(O)cc1)NC(=O)COCCOCCNC(=O)CN1CCN(CC(=O)O)CCN(CC(=O)O)CCN(CC(=O)O)CC1)C(C)C)C(N)=O [[^111In]PanSarbesin 1, ^111In-DOTA-PEG2-DTyr-Gln-Trp-Ala-Val-βAla-His-Phe-Nle-NH2, metal not drawn] ({DOTA-AEEA}-[dY]QWAV[βAla]HF[Nle]-NH2)
[1]
  percentage of parent peptide remaining intact: 13%
[2]
  uptake in PC-3 tumor: 3.75±0.73 % ID/g

## CSCC[C@H](NC(=O)[C@H](CC(C)C)NC(=O)[C@H](Cc1c[nH]cn1)NC(=O)CNC(=O)[C@@H](NC(=O)[C@H](C)NC(=O)[C@H](Cc1c[nH]c2ccccc12)NC(=O)[C@H](Cc1c[nH]cn1)NC(=O)[C@H](CC(N)=O)NC(=O)CNC(=O)C(CNCCN)CNCCN)C(C)C)C(N)=O [[^99mTc]SAR-NC1, metal not drawn]
[1]
  percentage of parent peptide remaining intact: 30%
[2]
  uptake in PC-3 tumor: 6.51±1.91 % ID/g

## CSCC[C@H](NC(=O)[C@H](CC(C)C)NC(=O)CNC(=O)[C@H](Cc1ccccc1)NC(=O)[C@H](Cc1ccccc1)NC(=O)[C@H](CCC(N)=O)NC(=O)[C@H](CCC(N)=O)NC(=O)[C@@H]1CCCN1C(=O)[C@H](CCCCN)NC(=O)[C@@H]1CCCN1C(=O)[C@H](CCCNC(=N)N)NC(=O)CN1CCN(CC(=O)O)CCN(CC(=O)O)CCN(CC(=O)O)CC1)C(N)=O [[111In]SP-1, metal not drawn]
[1]
  percentage of parent peptide remaining intact: 7%

## CCNC(=O)[C@H](CC(C)C)NC(=O)[C@H](Cc1c[nH]cn1)NC(=O)CNC(=O)[C@@H](NC(=O)[C@H](C)NC(=O)[C@H](Cc1c[nH]c2ccccc12)NC(=O)[C@H](CCC(N)=O)NC(=O)[C@@H](Cc1ccccc1)NC(=O)COCC(=O)Nc1ccc(CC(CNCCN)CNCCN)cc1)C(C)C [[^99mTc]Demobesin 1, metal not drawn]
[2]
  uptake in PC-3 tumor: 12.73±0.93 % ID/g
[3]
  in vitro stability in plasma: high in vitro stability
